Assay results taken from publication PMC9352680, “A comprehensive thermodynamic model for RNA binding by the Saccharomyces cerevisiae Pumilio protein PUF4”.

Target: T1, PUF4 RNA-binding domain (Saccharomyces cerevisiae, UniProt P25339 537-888)
T1 sequence: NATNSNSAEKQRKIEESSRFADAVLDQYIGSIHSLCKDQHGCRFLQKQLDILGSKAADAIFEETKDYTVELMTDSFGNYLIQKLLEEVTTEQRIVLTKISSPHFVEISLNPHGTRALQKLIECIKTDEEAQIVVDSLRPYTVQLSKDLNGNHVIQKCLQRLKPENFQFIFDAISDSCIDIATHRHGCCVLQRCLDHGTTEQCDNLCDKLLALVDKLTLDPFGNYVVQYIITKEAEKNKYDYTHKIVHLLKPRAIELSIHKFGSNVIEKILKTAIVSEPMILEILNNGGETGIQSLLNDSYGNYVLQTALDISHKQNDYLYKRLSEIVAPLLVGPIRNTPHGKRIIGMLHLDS
Experiment: Mg; RNA-MaP; 20 mM Na-HEPES pH 7.4, 30 mM KOAc, 0.75 mM MgCl2, 0.1% Tween-20, 5% glycerol, 0.1 mg/mL BSA, 2 mM DTT; 25 C; 0.0125-409.6 nM protein
Conditions: tags: N-His6-TEV cleaved; C-SNAP kept, Cy3B-labelled; label: tethered on chip by stalled RNA polymerase

Binder | Kd
Ic_S2_P4E.1_K4.1_C4.1_H4.1_A4.1_[T5C]_[A6C]_F4.1_[T8C]_[A9G]_T4.1 (ssRNA) RNA: UUUGAUUAAUAUGAUAUCGUUCUUUCUUGUACCUCGUUCUUUCUCGAUAUCAUAUUAAUCUUU | 54.9 nM
Ic_S2_P4E.1_K4.1_C4.1_H4.1_A4.1_[T5C]_[A6C]_F4.1_[T8C]_[A9C]_T4.1 (ssRNA) RNA: UUUGAUUAAUAUGAUAUCGUUCUUUCUUGUACCUCCUUCUUUCUCGAUAUCAUAUUAAUCUUU | 79.4 nM
Ic_S2_P4E.1_K4.1_C4.1_H4.1_A4.1_[T5C]_[A6C]_F4.1_[T8C]_[A9T]_T4.1 (ssRNA) RNA: UUUGAUUAAUAUGAUAUCGUUCUUUCUUGUACCUCUUUCUUUCUCGAUAUCAUAUUAAUCUUU | 29.7 nM
Ic_S2_P4E.1_K4.1_C4.1_H4.1_A4.1_[T5C]_[A6C]_F4.1_[T8C]_T4.1 (ssRNA) RNA: UUUGAUUAAUAUGAUAUCGUUCUUUCUUGUACCUCAUUCUUUCUCGAUAUCAUAUUAAUCUUU | 44.1 nM
Ic_S2_P4E.1_K4.1_C4.1_H4.1_A4.1_[T5C]_[A6C]_F4.1_[T8A]_[A9G]_T4.1 (ssRNA) RNA: UUUGAUUAAUAUGAUAUCGUUCUUUCUUGUACCUAGUUCUUUCUCGAUAUCAUAUUAAUCUUU | 77.3 nM
Ic_S2_P4E.1_K4.1_C4.1_H4.1_A4.1_[T5C]_[A6C]_F4.1_[T8A]_[A9T]_T4.1 (ssRNA) RNA: UUUGAUUAAUAUGAUAUCGUUCUUUCUUGUACCUAUUUCUUUCUCGAUAUCAUAUUAAUCUUU | 9.29 nM
Ic_S2_P4E.1_K4.1_C4.1_H4.1_A4.1_[T5C]_[A6C]_F4.1_[A9G]_T4.1 (ssRNA) RNA: UUUGAUUAAUAUGAUAUCGUUCUUUCUUGUACCUUGUUCUUUCUCGAUAUCAUAUUAAUCUUU | 14 nM
Ic_S2_P4E.1_K4.1_C4.1_H4.1_A4.1_[T5C]_[A6C]_F4.1_[A9C]_T4.1 (ssRNA) RNA: UUUGAUUAAUAUGAUAUCGUUCUUUCUUGUACCUUCUUCUUUCUCGAUAUCAUAUUAAUCUUU | 21.5 nM
UCUCUUUGUUUCUAUCUCUU (ssRNA) [Ib_S1_P3E.1_K3.1_C3.1_H3.1_[A4T]_A3.1_[A6C]_F3.1_T3.1] | > 2300 nM
Ic_S2_P4E.1_K4.1_C4.1_H4.1_A4.1_[T5C]_[A6C]_F4.1_[A9T]_T4.1 (ssRNA) RNA: UUUGAUUAAUAUGAUAUCGUUCUUUCUUGUACCUUUUUCUUUCUCGAUAUCAUAUUAAUCUUU | 6.99 nM
Ic_S2_P4E.1_K4.1_C4.1_H4.1_A4.1_[T5C]_[A6T]_[T7G]_F4.1_[T8G]_[A9T]_T4.1 (ssRNA) RNA: UUUGAUUAAUAUGAUAUCGUUCUUUCUUGUACUGGUUUCUUUCUCGAUAUCAUAUUAAUCUUU | 966 nM
Ic_S2_P4E.1_K4.1_C4.1_H4.1_A4.1_[T5C]_[A6T]_[T7G]_F4.1_[T8C]_[A9C]_T4.1 (ssRNA) RNA: UUUGAUUAAUAUGAUAUCGUUCUUUCUUGUACUGCCUUCUUUCUCGAUAUCAUAUUAAUCUUU | 467 nM
Ic_S2_P4E.1_K4.1_C4.1_H4.1_A4.1_[T5C]_[A6T]_[T7G]_F4.1_[T8C]_[A9T]_T4.1 (ssRNA) RNA: UUUGAUUAAUAUGAUAUCGUUCUUUCUUGUACUGCUUUCUUUCUCGAUAUCAUAUUAAUCUUU | 157 nM
Ic_S2_P4E.1_K4.1_C4.1_H4.1_A4.1_[T5C]_[A6T]_[T7G]_F4.1_[T8C]_T4.1 (ssRNA) RNA: UUUGAUUAAUAUGAUAUCGUUCUUUCUUGUACUGCAUUCUUUCUCGAUAUCAUAUUAAUCUUU | 753 nM
Ic_S2_P4E.1_K4.1_C4.1_H4.1_A4.1_[T5C]_[A6T]_[T7G]_F4.1_[A9T]_T4.1 (ssRNA) RNA: UUUGAUUAAUAUGAUAUCGUUCUUUCUUGUACUGUUUUCUUUCUCGAUAUCAUAUUAAUCUUU | 28.6 nM
Ic_S2_P4E.1_K4.1_C4.1_H4.1_A4.1_[T5C]_[A6T]_[T7G]_F4.1_T4.1 (ssRNA) RNA: UUUGAUUAAUAUGAUAUCGUUCUUUCUUGUACUGUAUUCUUUCUCGAUAUCAUAUUAAUCUUU | 2.61 nM
Ic_S2_P4E.1_K4.1_C4.1_H4.1_A4.1_[T5C]_[A6T]_[T7C]_F4.1_[T8G]_[A9C]_T4.1 (ssRNA) RNA: UUUGAUUAAUAUGAUAUCGUUCUUUCUUGUACUCGCUUCUUUCUCGAUAUCAUAUUAAUCUUU | 879 nM
Ic_S2_P4E.1_K4.1_C4.1_H4.1_A4.1_[T5C]_[A6T]_[T7C]_F4.1_[T8C]_[A9C]_T4.1 (ssRNA) RNA: UUUGAUUAAUAUGAUAUCGUUCUUUCUUGUACUCCCUUCUUUCUCGAUAUCAUAUUAAUCUUU | 242 nM
Ic_S2_P4E.1_K4.1_C4.1_H4.1_A4.1_[T5C]_[A6T]_[T7C]_F4.1_[T8C]_[A9T]_T4.1 (ssRNA) RNA: UUUGAUUAAUAUGAUAUCGUUCUUUCUUGUACUCCUUUCUUUCUCGAUAUCAUAUUAAUCUUU | 103 nM
UCUCUUUGUUUUUAUCUCUU (ssRNA) [Ib_S1_P3E.1_K3.1_C3.1_H3.1_[A4T]_A3.1_[A6T]_F3.1_T3.1] | 1670 nM
Ic_S2_P4E.1_K4.1_C4.1_H4.1_A4.1_[T5C]_[A6T]_[T7C]_F4.1_[T8C]_T4.1 (ssRNA) RNA: UUUGAUUAAUAUGAUAUCGUUCUUUCUUGUACUCCAUUCUUUCUCGAUAUCAUAUUAAUCUUU | 213 nM
Ic_S2_P4E.1_K4.1_C4.1_H4.1_A4.1_[T5C]_[A6T]_[T7C]_F4.1_[T8A]_[A9T]_T4.1 (ssRNA) RNA: UUUGAUUAAUAUGAUAUCGUUCUUUCUUGUACUCAUUUCUUUCUCGAUAUCAUAUUAAUCUUU | 68.6 nM
Ic_S2_P4E.1_K4.1_C4.1_H4.1_A4.1_[T5C]_[A6T]_[T7C]_F4.1_T4.1 (ssRNA) RNA: UUUGAUUAAUAUGAUAUCGUUCUUUCUUGUACUCUAUUCUUUCUCGAUAUCAUAUUAAUCUUU | 0.967 nM
